Assay results as given in patent US20220305098.

Biological target: T1, S5a protein (Ube3a target protein), P55036
T1 chain: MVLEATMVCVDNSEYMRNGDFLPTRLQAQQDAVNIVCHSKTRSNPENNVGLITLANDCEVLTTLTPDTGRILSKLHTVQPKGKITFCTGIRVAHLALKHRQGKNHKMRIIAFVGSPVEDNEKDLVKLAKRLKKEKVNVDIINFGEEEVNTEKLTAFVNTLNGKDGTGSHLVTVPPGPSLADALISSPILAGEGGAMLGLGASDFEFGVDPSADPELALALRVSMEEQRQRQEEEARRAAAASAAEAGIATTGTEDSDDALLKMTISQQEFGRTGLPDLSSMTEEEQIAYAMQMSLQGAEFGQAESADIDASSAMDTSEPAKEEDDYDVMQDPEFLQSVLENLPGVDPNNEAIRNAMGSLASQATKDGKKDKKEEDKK

B1: Human Ube3a isoform 1 with 8xN-glycan sites and IL2 secretion signal (expressed from the hAS8 lentiviral vector) (protein)
chain: MKRAAAKHLIERYYHQLTEGCGNEACTNEFCASCPTFLRMDNNTAAIKALELYKINAKLCDPHPSKKGASSAYLENSTGAPNNTCSEIKMNKKGARIDFKDVTYLTEEKVYEILELCREREDYSPLIRVIGRVFSSAEALVQSFRKVKQHTKEELKSLQAKDEDKDEDEKEKAACSAAAMEEDSEASSSRIGDSSQGDNNTQKLGPDDVSVDIDAIRRVYTRLLSNEKIETAFLNALVYLSPNVECDLTYHNVYSRDPNYLNLFIIVMENRNLHSPEYLEMALPLFCKAMSKLPLAAQGKLIRLWSKYNADQIRRMMETFQQLITYKVISNEFNSTNLVNDDDAIVAASKCLKMVYYANVVGGEVDTNHNEEDDEEPIPESSELTLQELLGEERRNKKGPRVDPLETELGVKTLDCRKPLIPFEEFINEPLNEVLEMDKDYTFFKVETENKFSFMTCPFILNAVTKNLGLYYDNRIRMYSERRITVLYSLVQGQQLNPYLRLKVRRDHIIDDALVRLEMIAMENPADLKKQLYVEFEGEQGVDEGGVSKEFFQLVVEEIFNPDIGMFTYDNSTKLFWFNPSSFETEGQFTLIGIVLGLAIYNNTILDVHFPMVVYRKLMGKKGTFRDLGDSHPVLYQSLKDLLEYEGNVEDDMMITFQISQTDLFGNPMMYDLKENGDKIPITNENRKEFVNLYSDYILNKSVEKQFKAFRRGFHMVTNESPLKYLFRPEEIELLICGSRNLDFQALEETTEYDGGYTRDSVLIREFWEIVHSFTDEQKRLFLQNNTGTDRAPVGGLGKLKMIIAKNGPDTERLPTSHTCFNVLLLPEYSSKEKLKERLLKAITYAKGFGML
  ubiquitination activity of the Ube3a S5a target protein (blot, bands of ubiquitinated S5A): different mutated forms of Ube3a ubiquitinate their S5A target
